In PMC8266045, “MT1-MMP-dependent ECM processing regulates laminB1 stability and mediates replication fork restart” (PLoS ONE, 2021):

B1: Focal Adhesion Kinase (natural protein, human (endogenous in MDA-MB-231), UniProt Q05397 1-1052, looked up)
chain: MAAAYLDPNLNHTPNSSTKTHLGTGMERSPGAMERVLKVFHYFESNSEPTTWASIIRHGDATDVRGIIQKIVDSHKVKHVACYGFRLSHLRSEEVHWLHVDMGVSSVREKYELAHPPEEWKYELRIRYLPKGFLNQFTEDKPTLNFFYQQVKSDYMLEIADQVDQEIALKLGCLEIRRSYWEMRGNALEKKSNYEVLEKDVGLKRFFPKSLLDSVKAKTLRKLIQQTFRQFANLNREESILKFFEILSPVYRFDKECFKCALGSSWIISVELAIGPEEGISYLTDKGCNPTHLADFTQVQTIQYSNSEDKDRKGMLQLKIAGAPEPLTVTAPSLTIAENMADLIDGYCRLVNGTSQSFIIRPQKEGERALPSIPKLANSEKQGMRTHAVSVSETDDYAEIIDEEDTYTMPSTRDYEIQRERIELGRCIGEGQFGDVHQGIYMSPENPALAVAIKTCKNCTSDSVREKFLQEALTMRQFDHPHIVKLIGVITENPVWIIMELCTLGELRSFLQVRKYSLDLASLILYAYQLSTALAYLESKRFVHRDIAARNVLVSSNDCVKLGDFGLSRYMEDSTYYKASKGKLPIKWMAPESINFRRFTSASDVWMFGVCMWEILMHGVKPFQGVKNNDVIGRIENGERLPMPPNCPPTLYSLMTKCWAYDPSRRPRFTELKAQLSTILEEEKAQQEERMRMESRRQATVSWDSGGSDEAPPKPSRPGYPSPRSSEGFYPSPQHMVQTNHYQVSGYPGSHGITAMAGSIYPGQASLLDQTDSWNHRPQEIAMWQPNVEDSTVLDLRGIGQVLPTHLMEERLIRQQQEMEEDQRWLEKEERFLKPDVRLSRGSIDREDGSLQGPIGNQHIYQPVGKPDPAAPPKKPPRPGAPGHLGSLASLSSPADSYNEGVKLQPQEISPPPTANLDRSNDKVYENVTGLVKAVIEMSSKIQPAPPEEYVPMVKEVGLALRTLLATVDETIPLLPASTHREIEMAQKLLNSDLGELINKMKLAQQYVMTSLQQEYKKQMLTAAHALAVDAKNLLDVIDQARLKMLGQTRPH
notes: Focal adhesion kinase (FAK), endogenous in human MDA-MB-231 breast cancer cells; Endogenous protein; also called FAK; source: endogenous, MDA-MB-231 lysate (RIPA buffer)
B2: laminB1 (natural protein, human (endogenous in MDA-MB-231), UniProt P20700 1-586, looked up)
chain: MATATPVPPRMGSRAGGPTTPLSPTRLSRLQEKEELRELNDRLAVYIDKVRSLETENSALQLQVTEREEVRGRELTGLKALYETELADARRALDDTARERAKLQIELGKCKAEHDQLLLNYAKKESDLNGAQIKLREYEAALNSKDAALATALGDKKSLEGDLEDLKDQIAQLEASLAAAKKQLADETLLKVDLENRCQSLTEDLEFRKSMYEEEINETRRKHETRLVEVDSGRQIEYEYKLAQALHEMREQHDAQVRLYKEELEQTYHAKLENARLSSEMNTSTVNSAREELMESRMRIESLSSQLSNLQKESRACLERIQELEDLLAKEKDNSRRMLTDKEREMAEIRDQMQQQLNDYEQLLDVKLALDMEISAYRKLLEGEEERLKLSPSPSSRVTVSRASSSRSVRTTRGKRKRVDVEESEASSSVSISHSASATGNVCIEEIDVDGKFIRLKNTSEQDQPMGGWEMIRKIGDTSVSYKYTSRYVLKAGQTVTIWAANAGVTASPPTDLIWKNQNSWGTGEDVKVILKNSQGEEVAQRSTVFKTTIPEEEEEEEEAAGVVVEEELFHQQGTPRASNRSCAIM
notes: Lamin B1, nuclear envelope intermediate filament protein, endogenous in human MDA-MB-231 breast cancer cells; The introduction says that laminB1 is tethered to the membrane via a farnesyl group; nothing is said of the modification state in the co-IP; also called LMNB1; source: endogenous, MDA-MB-231 lysate (RIPA buffer)

Columns and labels:
[1] = biological target: B2; test: co-IP; MDA-MB-231 lysate in RIPA buffer (50mM Tris HCl pH 8, 150 mM NaCl, 1% NP-40, 0.5% sodium deoxycholate); immunoprecipitated overnight at 4°C with laminB1 antibody; immunoblot with anti FAK and anti laminB1; IgG as negative control; settings: partners not purified
[2] = biological target: B1; test: co-IP; MDA-MB-231 lysate in RIPA buffer (50mM Tris HCl pH 8, 150 mM NaCl, 1% NP-40, 0.5% sodium deoxycholate); immunoprecipitated overnight at 4°C with FAK antibody; immunoblot with anti FAK and anti laminB1; IgG as negative control; settings: partners not purified

enrichment versus input [1] [fold versus input] | enrichment versus input [2] [fold versus input] | Binder
6.4 ± 1.05 | – | B1
– | 5.5 ± 0.4 | B2
